Data taken from paper PMC2409314, “Expression of zebrafish pax6b in pancreas is regulated by two enhancers containing highly conserved cis-elements bound by PDX1, PBX and PREP factors”.

T1: PBX1a (long isoform);PREP1 (;, UniProt P41778;P55347 1-430;1-436, |)
T1 sequence 1: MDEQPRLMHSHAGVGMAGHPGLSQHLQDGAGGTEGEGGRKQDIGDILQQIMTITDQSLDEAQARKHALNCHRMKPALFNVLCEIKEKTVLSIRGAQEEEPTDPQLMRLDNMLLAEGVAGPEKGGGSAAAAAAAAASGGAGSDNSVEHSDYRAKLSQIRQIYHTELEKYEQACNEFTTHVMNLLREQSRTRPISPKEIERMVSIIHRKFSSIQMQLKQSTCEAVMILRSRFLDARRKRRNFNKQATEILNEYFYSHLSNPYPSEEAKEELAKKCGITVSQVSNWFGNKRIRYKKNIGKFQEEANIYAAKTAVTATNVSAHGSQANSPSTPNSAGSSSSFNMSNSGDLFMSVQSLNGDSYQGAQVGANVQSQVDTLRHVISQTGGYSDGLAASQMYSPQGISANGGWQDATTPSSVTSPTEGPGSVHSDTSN
T1 sequence 2: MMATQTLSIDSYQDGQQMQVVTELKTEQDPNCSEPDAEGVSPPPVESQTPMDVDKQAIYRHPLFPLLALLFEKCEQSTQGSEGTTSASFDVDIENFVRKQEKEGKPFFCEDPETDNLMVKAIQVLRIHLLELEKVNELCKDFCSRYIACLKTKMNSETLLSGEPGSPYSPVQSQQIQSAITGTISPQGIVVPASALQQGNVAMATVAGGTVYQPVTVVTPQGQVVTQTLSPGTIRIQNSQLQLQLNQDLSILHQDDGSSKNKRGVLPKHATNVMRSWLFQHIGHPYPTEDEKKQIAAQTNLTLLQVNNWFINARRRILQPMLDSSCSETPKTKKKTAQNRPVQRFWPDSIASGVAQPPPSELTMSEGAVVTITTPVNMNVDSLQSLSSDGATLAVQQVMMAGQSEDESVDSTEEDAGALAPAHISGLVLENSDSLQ


Experiments:
Experiment in all cases: EMSA; 2 ug nuclear extract or 1 ul ivt protein, 0.1 ng 32P ds oligo, 1 ug poly(dI-dC); antiserum preincubation 15 min at room temperature; buffer, salt and pH not given (by reference)
[1] = molecular target: PBX1a (long isoform);PREP1;PDX1 (STF-1) (;;, UniProt P41778;P55347;P52947 1-430;1-436;1-283, ||); conditions: protein: ivt;ivt;recombinant; tags: ;;; copies: 1;1;1; label: 32P (Klenow); only top strand given; 5' GATC end, Klenow labelled
[2] = molecular target: T1, PBX1a (long isoform);PREP1; conditions: protein: ivt;ivt; tags: ;; copies: 1;1; label: 32P (Klenow); only top strand given; 5' GATC end, Klenow labelled
PDX1 (STF-1) = PDX1 (STF-1) (UniProt P52947 1-283); conditions: protein: recombinant; label: 32P (Klenow); only top strand given; 5' GATC end, Klenow labelled
Chain of PDX1 (STF-1) (P52947 whole entry): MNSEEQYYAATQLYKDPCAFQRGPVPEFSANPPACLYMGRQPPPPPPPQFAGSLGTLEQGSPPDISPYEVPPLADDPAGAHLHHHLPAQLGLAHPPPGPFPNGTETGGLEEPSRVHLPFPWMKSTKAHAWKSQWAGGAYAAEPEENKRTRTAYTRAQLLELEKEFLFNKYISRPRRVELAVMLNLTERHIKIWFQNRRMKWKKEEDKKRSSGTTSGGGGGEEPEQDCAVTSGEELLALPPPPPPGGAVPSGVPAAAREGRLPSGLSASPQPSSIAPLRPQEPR

Chain of PBX1a (long isoform);PREP1;PDX1 (STF-1) (P52947 whole entry, canonical isoform, one chain of several): as the sequence (P52947 whole entry) above

Row | Binder | binding result [1] | binding result [2] | binding result (PDX1 (STF-1))
1 | PA1b (dsDNA) DNA 1: GATCGCATCACGATCAATCACAGCGCT DNA 2: AGCGCTGTGATTGATCGTGATGCGATC | binds | binds | 
2 | PC3b (dsDNA) DNA 1: GATCTAGCTCTTAATTGTGGTT DNA 2: AACCACAATTAAGAGCTAGATC |  |  | binds
